The values that follow come from patent US20170275380A1 (ROCHE DIAGNOSTICS OPERATIONS, published 2017).

For experiment [1], the target named is T1, human HER3(1242-1267)-Bi-PEG-amide (human, Bi-PEG (biotin-PEG); C-terminal amide).
T1 construct: Injected as analyte singly grafted on streptavidin; also called HER3 peptide
T1 peptide: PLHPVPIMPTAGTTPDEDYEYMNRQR
The experiment in a line: SPR kinetic screening (Biacore A100); mAb captured by anti-mouse IgG Fc; peptide grafted on streptavidin as analyte; Langmuir model; anti-HER3 antibody, HER3 peptide. The protocol:
(§1) A BIACORE™ A100 instrument under control of the software version V1.1 is used. A BIACORE™ CMS chip is mounted into the instrument and is hydrodynamically addressed conditioned according to the manufacturer's instructions. As a running buffer an HBS-EP buffer is used (10 mM HEPES (pH 7.4), 150 mM NaCl, 1 mM EDTA, 0.05% (w/v) P20). A polyclonal rabbit anti-mouse IgG Fc capture antibody is immobilized at 30 μg/ml in 10 mM sodium acetate buffer (pH 4.5) to spots 1, 2, 4 and 5 in flow cells 1, 2, 3 and 4 at 10,000 RU. The antibody is covalently immobilized via NHS/EDC chemistry. The sensor is deactivated thereafter with a 1 M ethanolamine solution. Spots 1 and 5 are used for the determination and spots 2 and 4 are used as reference. Prior to application to the sensor chip the hybridoma supernatants containing mAbs are diluted 1:2 in HBS-EP buffer. The diluted solution is applied at a flow rate of 30 μl/min for 1 min. Immediately thereafter the analyte, human HER3(1242-1267)-Bi-PEG-amide (SEQ ID NO:26) or human HER2(1223-1236)-Bi-PEG-amide (SEQ ID NO:25), singly grafted on streptavidin, is injected at a flow rate of 30 μl/min for 2 min. Thereafter, the signal is recorded for 5 min dissociation time. The sensor is regenerated by injecting a 10 mM glycine-HCl solution (pH 1.7) for 2 min, at a flow rate of 30 μl/min.
For orientation: Surface plasmon resonance follows binding to a sensor surface in real time, without labels.

Experiment [2] addresses T2, human HER2(1223-1236)-Bi-PEG-amide (human, also: Bi-PEG (biotin-PEG), place not given here).
T2 construct: Injected as analyte singly grafted on streptavidin; also called HER2 peptide
T2 peptide: WDQDPPERGAPPST-NH2
The experiment is described as follows: SPR kinetic screening (Biacore A100); mAb captured by anti-mouse IgG Fc; peptide grafted on streptavidin as analyte; Langmuir model; anti-HER2 antibody, HER2 peptide. On the procedure: as §1

Experiment [3] has as its target T3, IGF-1R(1340-1366)[1346-pTyr; Glu(Bi-PEG-1340]amid (phosphotyrosine at 1346; PEG-linker with biotin bound via glutamic acid corresponding to position 1340; C-terminal amide).
T3 construct: also called pIGF-1R peptide (biotinylated); phosphorylated IGF-1R peptide
T3 peptide: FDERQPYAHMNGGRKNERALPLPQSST
The experiment is described as follows: SPR (Biacore 2000, 25 C); hybridoma supernatant 1:2 over biotinylated peptide on SA chip. On the procedure: (§2) Further, surface plasmon resonance was used to determine the antigen specificity. A BIACORE™ 2000 instrument (GE Healthcare) was used with a BIACORE™ SA sensor mounted into the system at T=25° C. and was preconditioned at 100 μl/min with 3×1 min injection of 1 M NaCl in 50 mM NaOH and 1 min 10 mM HCl. The system buffer was HBS-ET (10 mM HEPES pH 7.4, 150 mM NaCl, 1 mM EDTA, 0.05% TWEEN® 20). The sample buffer was the system buffer+1 mg/ml CMD (Carboxymethyldextrane, Sigma).
(§3) Subsequently, biotinylated peptides were captured on the SA surface in the respective flow cells. The flow cells finally were saturated with 2 μM d-biotin. […] Flow cell 1 served as a reference. A blank buffer injection was used instead of an antigen injection to double reference the data by buffer signal subtraction. The data was evaluated according to the BIACORE™ evaluation software 1.1.1. The signal height was measured at the end of the injection time, Binding Late (RU).

Experiment [4] concerns the target T4, IGF-1R(1340-1366); Glu(Bi-PEG-1340]amid (PEG-linker with biotin bound via glutamic acid corresponding to position 1340; C-terminal amide).
T4 construct: also called IGF-1R peptide (biotinylated, non-phosphorylated); IGF-1R(1340-1366)PEG-Bi
T4 peptide: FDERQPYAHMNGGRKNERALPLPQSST
The description is as above. On the procedure:
as §2, §3

The target in experiment [5] is Bi-InsulinR(1356-1382)p1361 (phosphotyrosine at 1361; biotin). The experiment is described as above. The protocol: as §2, §3

No end group written: not given here.

What is called koff is a measure of how fast the partners let go of each other. Low values mean slow dissociation, high ones fast dissociation.

Sequence of Bi-InsulinR(1356-1382)p1361 (phosphotyrosine at 1361; biotin) (peptide, as listed by the source): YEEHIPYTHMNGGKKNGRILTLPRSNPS

B1: antibody 7.2.32 (antibody, V domains shown)
VH: EVQLQESGGGLVQPKGSLQLSCAASGFTFNTYAMHWVRQAPGKGLEWVARIRTESSDYATDYADSVKDRFIISRDDSQNMLYLQMNNLKSEDTAIYYCVRSSGFDYWGQGTTLTVSS
VL: DIQMTQSPSLPVSLGDQASISCRSSQSLVHDNGNTYLHWFLQKPGQSPKLLIYKVSNRFSGVPDRFGGSGSGTDFTLKISGVEAEDLGVYFCSQGTHVPTFGGGTKLEIK
notes: Mouse monoclonal antibody, tested from hybridoma supernatant captured by anti-mouse IgG Fc; also called selected antibody directed against HER3
Consider B1, for which the koff in experiment [1] turned out to be 0.0023 s⁻¹.

B2: antibody 4.1.43 (antibody, V domains shown)
VH: EVQLQQSGPVLVKPGASVKMSCRPSGYTFTDYNMHWVKQSHEKSLEWIGYINPKNGIISYNQKFKDKATLTVNKSSRTAYMELRSLTSEDSAVYFCAGDYWGQGTSVTVSS
VL: DVVMTQTPLSLPVSLGDQASISCRSSQSLVHSNGNTYLHWYLQKPGQSPKLLISKVSNRFSGVPDRFSGSGSGTDFTLKISRVEAEDLGVYFCSQSIHLPWTFGGGTKLEIK
notes: Mouse monoclonal antibody, tested from hybridoma supernatant captured by anti-mouse IgG Fc; also called selected antibody directed against HER2
B2 had a koff in experiment [2] of 0.000963 s⁻¹.

B3: mAb 1.4.168 (antibody, V domains shown)
VH: DVKLVESGGGLVKPGGSLKLSCAASGFTFSDYPMSWVRQTPEKRLEWVATITTGGTYTYYPDSIKGRFTISRDNAKNTLYLQMGSLQSEDAAMYYCTRVKTDLWWGLAYWGQGTLVTVSA
VL: QLVLTQSSSASFSLGASAKLTCTLSSQHSTYTIEWYQQQPLKPPKYVMELKKDGSHTTGDGIPDRFSGSSSGADRYLSISNIQPEDESIYICGVGDTIKEQFVYVFGGGTKVTVLG
notes: Murine monoclonal IgG from hybridoma; also called M-1.4.168-IgG; M-1.004.168-IgG
For the molecule B3, the entries for the “Binding Late (RU)” value in experiment [3], in experiment [4] and in experiment [5] were 265 RU, 199 RU and 0 RU, respectively.
